Laboratory results published in the DeepSol protein solubility set.

Experiment: soluble on expression in E. coli; label from the status in PepcDB or PDB records

Sequence | soluble on expression in E. coli
MGSDKIHHHHHHMKPITVLVSVDSNSVLMGARHFLNYFRDLVKEHNLEDTVDVLETGSMGIYPEGVIVSVLPDGVFYVVRNELDVRRIFEEHILKGRRVLDLEIPESQIKGTVEVEKVAEETRIVLKNVGEIDPTRIEEYIARDGYFALAKALQMEPGEIIEEIKRSGLRGRGGAGFPTGLKWEFTYKASADQKYVLCNADEGEPGTFKDRLIMEGDPHSLIEGMIIAGYAVGATKGYIYIRGEYHSSIEILKKAVEQAYEYGFLGENILGSGFNFDLKIRLGAGAYVAGEETALIESIEGKPARPRLKPPYPPTFGLFGKPTVVNNVETFVNVPRIIMNGAEWFKKFGTESSPGTKVFSLVGNVVRKGIVEVPMGVTVRDLIFKFGGGIEGGRKLKVVQTGGSAGTFIGPDKLDVPLDFDSYAKYGVSLGSGVILVADETHCVVDLALTVMRFFEHESCGKCTPCREGTRMIVNILERISRGEGKKEDLDTLREIARNAGETSFCGLGQSIPVPLLSIVDNFEEEFKAHIGADKCPVGVCEFKKKKEKKKIGVRKP | not soluble
MSLQQSPSTSRPQLGIGLIGTGFMGRAHALAFGSANAALELPARIHLAALADADSARAEQCAQAWGFDRSHADWQQLVEDPRVQIVAITTPNHLHFPMAMAAIAAGKAVYCEKPLAVSLAQADEMQRSAKAAGVVTQVGYNYQHNPMIGLAREMIEAGELGDIVSFQGEFSEDFMGSATSPWSWRCEAAHAGGALADLGSHLLAMARYLLGDIEAVCADANTVHSQRPASPGSNEMRAIAVDDQTHALLRFASGARGTFSSSWLKHGYKNHLSFEISGTQGTLTYDQERLNELRIYRPGAPGRDGFQRLLAGPAQPGYAAFCPAPGHQLGYNELKALEVQALILAVCGQGSRGPDFEEAWQIERLATAIRLAAHEQRWVALDDEGHHHHHH | soluble
PPRKKVATGRRDITKKSEGKPHPTQTYEHELLATQLSNKKMMPFKSQIRARSFDEYKDWVCHDGEEFLLILSGEVMFYSEFYEPVVLSEGDSVYYDANMGHMLTSVSEEDAQILWVTAK | not soluble
MGSDKIHHHHHHMHKFNPDRIQIGISACLLGEQVRFDGGHKNSAYCQQELKPHFDFVPVCPEMAIGLGAPRKSIRQVRIEGEIRVRSADGSIDVTEQLQSFCNNKADGLGFLGGYLFCSKSPTCGMERVPVYKADGSGGFKEGVGVFAAALMKRFPHLPVEEEGRLHDLVIRENFFTRVYAYHDWHCMRLKGLTRKALTDFHARYKYLLLSHSPAIYRTLGPLLAGDGELEAVADSYFDGFMTALRHKASRRNHTSALQHIQGYFKKFLSGSQKAELSDAILAYRQGVQPLLVPITLIRHYLREHPNDYIAAQVYLNPHPDSLRLRYAY | not soluble
MGSDKIHHHHHHLDGDTQISIEALTSLSQITAEEWDACACPEDGRPLDPFTTYRFLDALEQSGSVGPGSGWQPRYLVARMDDQVIACAPMYAKGHSQGEYIFDHNWAHAYENAGGAYYPKLQIAAPFTPATGRRFLTRPGHDATGISALIQGAVQIAADNDLSSLHVTFCTEDEAIAGERIGLMRRWSQQFHWVNDGYADFDGFLASLSSRKRKNIRKERARAQAFGGEIVSLTGAQIKAEHWDAFWHFYQDTGARKWGTPYLTRAFFDIVHETLTDDMLLCLAIREGQPVAGALNFIGADTLYGRYWGCVEDHPCLHFELCYYQAIDYAIANGLSRVEAGAQGAHKLARGYLPVATHSLHWVRDAGFAEAIGRYLEAEREAVDEEIEVLTGYGPFKRA | not soluble
SAAQKINEGLEHLAKAEKYLKTGFLKWKPDYDSAASEYGKAAVAFKNAKQFEQAKDACLREAVAHENNRALFHAAKAYEQAGMMLKEMQKLPEAVQLIEKASMMYLENGTPDTAAMALERAGKLIENVDPEKAVQLYQQTANVFENDERLRQAVELLGKASRLLVRGRRFDEAALSIQKEKNIYKEIENYPTCYKKTIAQVLVHLHRNDYVAAERCVRESYSIPGFNGSEDCAALEQLLEGYDQQDQDQVSDVCNSPLFKYMDNDYAKLGLSLVVPGGGIKKKSPATPQAKPDGVTATAADEEEDEYSGGLC | soluble
MGTLWWNGTFFTMVHEGDQVEAVFTEDGKIVAIGTAEELRQRYSTRINQEMNCDGAYVYPGFVDSHLHMIGLEHHHHHH | not soluble
